Laboratory results taken from patent publication US20110262525A1, “METHODS OF TREATMENT” (SCHERING CORPORATION, priority 2006, published 2011).
Marks after values point to notes of the source that are not given here.

Legend:
[1] = test system: Rh41 xenograft (ALV Rhabdomyosarcoma); experiment: PPTP in vivo xenograft Rh41
Source text: The PPTP includes a molecularly characterized in vitro panel of cell lines (n=27) and in vivo panel of xenografts (n=61) representing most of the common types of childhood solid tumors and childhood ALL (acute lymphoblastic leukemia).
(§1) Stage 1 testing involved testing an agent across the entire PPTP panel of childhood cancer xenograft lines at its maximum tolerated dose (MTD) or at a dose selected based on PK/PD (pharmacokinetic/pharmacodynamic) studies using adult preclinical models.
(§2) In vivo solid tumor testing: For each xenograft line, 10 mice bearing subcutaneous (SC) tumors initiated treatment when the tumors were between 0.2-0.5 cm^3 in volume. Two perpendicular tumor diameters were measured at once weekly intervals with digital vernier calipers. Assuming tumors to be spherical, volumes were calculated from the formula (π/6)×d3, where d represented the mean diameter.
The antibody was provided to each testing site in coded vials for blinded testing according the PPTP's standard operating procedures.
(§3) Median Group Response: Each individual mouse in each treatment group was assigned a response score (see Tables above) and a median score for the treatment group was calculated and then each treatment group was assigned an overall response according to the table below.
(§4) Statistical Methods: Event-free survival (EFS) distributions of each treatment group were compared to the EFS distribution of the respective control group using the exact log rank test. P-values were 2-sided & were not adjusted for multiple comparisons given the exploratory nature of this study. P-values<0.05 were considered to be significant.

[2] = test system: Rh28 xenograft (ALV Rhabdomyosarcoma); experiment: PPTP in vivo xenograft Rh28; set-up: key to EFS activity notation (high, intermediate, indeterminate): high (!); intermediate (#); indeterminate (^)
Method: (§5) The PPTP includes a molecularly characterized in vitro panel of cell lines (n=27) and in vivo panel of xenografts (n=61) representing most of the common types of childhood solid tumors and childhood ALL (acute lymphoblastic leukemia). LCF/HCA anti-IGF1R antibody was tested against the PPTP in vitro panel at concentrations ranging from 0.01 nM to 100 nM; and was tested against the PPTP in vivo panel at a dose of 0.5 mg per mouse administered twice weekly for four weeks via intraperitoneal injection. Three measures of antitumor activity were used: 1) response criteria modeled after the clinical setting; 2) treated-to-control (T/C) tumor volume at day 21; and 3) a time to event (4-fold increase in tumor volume) measure based on the median EFS of treated and control lines (intermediate activity required EFS (event-free survival) T/C>2, and high activity additionally required a net reduction in median tumor volume at the end of the experiment).
as §1, §2
(§6) Drug: LCF/HCA was dissolved in 20mM sodium acetate pH 5 buffer containing 150 mM sodium chloride, and administered intraperitoneally twice weekly for 4 consecutive weeks at a dose of 0.5 mg per animal. The antibody was provided to each testing site in coded vials for blinded testing according the PPTP's standard operating procedures.
as §3, §4

[3] = test system: ALL-8 xenograft (ALL T-cell); experiment: PPTP in vivo leukemia xenograft ALL-8; settings: ALL-8 (ALL T-cell) xenograft; 0.5 mg per mouse ip twice weekly for four weeks
Method: (§7) The PPTP includes a molecularly characterized in vitro panel of cell lines (n=27) and in vivo panel of xenografts (n=61) representing most of the common types of childhood solid tumors and childhood ALL (acute lymphoblastic leukemia). LCF/HCA anti-IGF1R antibody was tested against the PPTP in vitro panel at concentrations ranging from 0.01 nM to 100 nM; and was tested against the PPTP in vivo panel at a dose of 0.5 mg per mouse administered twice weekly for four weeks via intraperitoneal injection. […]
(§8) In vivo acute lymphoblastic leukemia testing: For each xenograft line, 8 mice were inoculated with 3-5×10^6 mononuclear cells purified from the spleens of secondary recipient mice. Engraftment was monitored weekly by flow cytometry, and treatment was initiated when the proportion of human CD45+ cells in the peripheral blood reached 1%. The proportion of human CD45+ cells in the peripheral blood was monitored weekly throughout the course of treatment. […]
(§9) Median Group Response: Each individual mouse in each treatment group was assigned a response score (see Tables above) and a median score for the treatment group was calculated and then each treatment group was assigned an overall response according to the table below. […]

[4] = test system: OS-2 xenograft (Osteosarcoma); experiment: PPTP in vivo xenograft OS-2; set-up: key to EFS activity notation (high, intermediate, indeterminate): high (!); intermediate (#); indeterminate (^); settings: OS-2 (Osteosarcoma) xenograft, 0.5 mg per mouse ip twice weekly for four weeks
Method: as §5, §1, §2, §6, §3, §4

KT-13 xenograft (Wilms) = experiment: PPTP in vivo xenograft KT-13; settings: KT-13 (Wilms) xenograft, 0.5 mg per mouse ip twice weekly for four weeks
Method: as §5, §1, §2
(§10) Drug: LCF/HCA was dissolved in 20mM sodium acetate pH 5 buffer containing 150 mM sodium chloride, and administered intraperitoneally twice weekly for 4 consecutive weeks at a dose of 0.5 mg per animal. […]
as §9

[5] = test system: ALL-4 xenograft (ALL B-precursor); experiment: PPTP in vivo leukemia xenograft ALL-4; settings: ALL-4 (ALL B-precursor) xenograft; 0.5 mg per mouse ip twice weekly for four weeks
Method: as §7, §8, §9

[6] = test system: NB-1691 xenograft (Neuroblastoma); experiment: PPTP in vivo xenograft NB-1691; settings: NB-1691 (Neuroblastoma) xenograft, 0.5 mg per mouse ip twice weekly for four weeks
Method: as §5, §1, §2, §10, §9

[7] = test system: ALL-2 xenograft (ALL B-precursor); experiment: PPTP in vivo leukemia xenograft ALL-2; settings: ALL-2 (ALL B-precursor) xenograft; 0.5 mg per mouse ip twice weekly for four weeks
Method: as §7, §8, §9

[8] = test system: ALL-19 xenograft (ALL B-precursor); experiment: PPTP in vivo leukemia xenograft ALL-19; settings: ALL-19 (ALL B-precursor) xenograft; 0.5 mg per mouse ip twice weekly for four weeks
Method: as §7, §8, §9

[9] = test system: NB-1643 xenograft (Neuroblastoma); experiment: PPTP in vivo xenograft NB-1643; settings: NB-1643 (Neuroblastoma) xenograft, 0.5 mg per mouse ip twice weekly for four weeks
Method: as §5, §1, §2, §6, §3, §4

[10] = test system: gastric cancer cell line SNU-16; experiment: Cell-Titer Glo proliferation assay, SNU-16; assay type: cell-based, human; settings: 0.000256-100 nM antibody
[11] = test system: GBM2 xenograft (Glioblastoma); experiment: PPTP in vivo xenograft GBM2
Method: as §5, §1, §2, §10, §9

[12] = test system: NB-1771 xenograft (Neuroblastoma); experiment: PPTP in vivo xenograft NB-1771; settings: NB-1771 (Neuroblastoma) xenograft, 0.5 mg per mouse ip twice weekly for four weeks
Method: as §5, §1, §2, §10, §9

[13] = test system: CHLA-79 xenograft (Neuroblastoma); experiment: PPTP in vivo xenograft CHLA-79; set-up: key to EFS activity notation (high, intermediate, indeterminate): high (!); intermediate (#); indeterminate (^); settings: CHLA-79 (Neuroblastoma) xenograft, 0.5 mg per mouse ip twice weekly for four weeks
Method: as §5, §1, §2, §6, §3, §4

[14] = 0.5 mg per mouse ip twice weekly for four weeks
[15] = day 21, 0.5 mg per mouse ip twice weekly for four weeks

B1: LCF/HCA: fully human anti-IGF1R antibody comprising the mature 19D12/15H12 light chain F (LCF) and mature heavy chain A (HCA) (antibody, V domains shown)
VH: EVQLVQSGGGLVHPGGSLRLSCAASGFTFSSFAMHWVRQAPGKGLEWISVIDTRGATYYADSVKGRFTISRDNAKNSLYLQMNSLRAEDMAVYYCARLGNFYYGMDVWGQGTTVTVSS
VL: EIVLTQVPDFQSVTPKEKVTITCRASQSIGSSLHWYQQKPDQSPKLLIKYASQSLSGVPSRFSGSGSGTDFTLTINSLEAEDAAAYYCHQSSRLPHTFGGGTKVEIKRT
EFS T/C [1, 14]: 1.1 | Median Final RTV [1, 14]: >4 | Tumor Volume T/C [1, 15]: 0.65 | EFS T/C [2, 14]: > 2.6 | EFS activity notation (high, intermediate, indeterminate) [2, 14]: # | Median Final RTV [2, 14]: 2.9# | Overall Group Response [2, 14]: PD2 (1 < MS ≦ 3) | Tumor Volume T/C [2, 15]: 0.36 | EFS T/C [3]: 1.5 | Median Final RTV [3]: >25 | EFS T/C [4]: 2.3 | EFS activity notation (high, intermediate, indeterminate) [4]: # | Median Final RTV [4]: >4# | Overall Group Response [4]: PD2 (1 < MS ≦ 3) | Tumor Volume T/C ([4]; day 21): 0.5 | EFS T/C (KT-13 xenograft (Wilms)): 1.1 | Median Final RTV (KT-13 xenograft (Wilms)): >4 | Tumor Volume T/C (KT-13 xenograft (Wilms); day 21): 0.84 | EFS T/C [5]: 0.8 | Median Final RTV [5]: >25 | EFS T/C [6]: 0.9 | Median Final RTV [6]: >4 | Tumor Volume T/C ([6]; day 21): 1.34 | EFS T/C [7]: 0.7 | Median Final RTV [7]: >25 | EFS T/C [8]: 1.5 | Median Final RTV [8]: >25 | EFS T/C [9]: 1.8 | Median Final RTV [9]: >4 | Overall Group Response [9]: PD2 (1 < MS ≦ 3) | Tumor Volume T/C ([9]; day 21): 0.53 | proliferation of gastric cancer cell line [10]: inhibitied | EFS T/C [11, 14]: 1.4 | Median Final RTV [11, 14]: >4 | Tumor Volume T/C [11, 15]: 0.73 | EFS T/C [12]: 1.1 | Median Final RTV [12]: >4 | Tumor Volume T/C ([12]; day 21): 0.64 | EFS T/C [13]: 2.1 | EFS activity notation (high, intermediate, indeterminate) [13]: # | Median Final RTV [13]: 3.9# | Overall Group Response [13]: PD2 (1 < MS ≦ 3) | Tumor Volume T/C ([13]; day 21): 0.69
